According to patent publication US20230331821A1 (VIR BIOTECHNOLOGY, published 2023):
Where two headings read alike, the source gives them in different places.

Tests used:
[1] = molecular target: SARS1 Spike; assay: ELISA, antigen coated on the plate, OD 405 nm
[2] = molecular target: SARS1 Spike; assay: ELISA, antigen coated on the plate, OD 405 nm; remark: listed apart in the source

B1: S110 (antibody, V domains shown)
VH: QVQLVESGGGLVQAGGSLRLSCAASGRTFSSAGMAWFRQAPGKEREFVATSNWNGGDTDYADSVKGRFTISRDNAKNTVYLQMNNLKPEDTAVYYCAAHLQKYGGDYYARIWGQGTQVTVS
With B1 the “EC50 (read off the curve)” value [1] was ~0.03 µg/mL and the “EC50 (read off the curve)” value [2] was ~0.03 µg/mL.
